# Results reported in patent US20230416321A1.
# Molecular target: TβRII-IgG Fc fusion protein (human) (UniProt P37173)
# Assay: capture assay on plate-immobilised TβRII-Fc, detection biotin anti-IL-2 / streptavidin-HRP, TMB 450 nm; Kd from the capture curve
# masked TGF-β1 construct, IL-2 - IgG scaffold - TβRII(Δ25, D118A, E55A) mask - TGF-β1, sequence (P01137 other isoform, or with tags, fused parts or gaps, stated change not applied): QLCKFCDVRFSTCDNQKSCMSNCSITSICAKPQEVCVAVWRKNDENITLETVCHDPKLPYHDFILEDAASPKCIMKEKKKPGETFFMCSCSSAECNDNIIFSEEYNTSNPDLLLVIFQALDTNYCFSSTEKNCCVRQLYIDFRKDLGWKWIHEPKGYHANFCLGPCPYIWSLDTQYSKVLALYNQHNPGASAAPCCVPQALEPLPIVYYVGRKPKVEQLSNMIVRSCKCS
# masked TGF-β1 construct, IL-2 - IgG scaffold - TβRII(Δ25, D118A, S52L) mask - TGF-β1, sequence (P01137 other isoform, or with tags, fused parts or gaps, stated change not applied): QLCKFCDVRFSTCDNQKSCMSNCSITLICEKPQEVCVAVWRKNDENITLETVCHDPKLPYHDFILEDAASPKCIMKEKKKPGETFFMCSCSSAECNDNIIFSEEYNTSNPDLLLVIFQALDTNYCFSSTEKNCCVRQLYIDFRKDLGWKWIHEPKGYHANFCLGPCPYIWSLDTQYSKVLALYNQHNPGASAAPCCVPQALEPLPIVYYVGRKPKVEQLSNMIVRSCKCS
# masked TGF-β1 construct, IL-2 - IgG scaffold - TβRII(Δ25, D118A, D32N) mask - TGF-β1, sequence (P01137 other isoform, or with tags, fused parts or gaps, stated change not applied): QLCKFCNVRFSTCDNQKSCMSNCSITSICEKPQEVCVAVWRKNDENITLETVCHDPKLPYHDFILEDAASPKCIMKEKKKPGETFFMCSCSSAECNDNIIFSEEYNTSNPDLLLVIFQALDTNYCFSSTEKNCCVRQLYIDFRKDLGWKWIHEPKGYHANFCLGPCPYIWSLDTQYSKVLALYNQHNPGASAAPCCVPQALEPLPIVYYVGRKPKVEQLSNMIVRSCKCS
# masked TGF-β1 construct, IL-2 - IgG scaffold - TβRII(Δ25, D118A) mask - TGF-β1, sequence (P01137 other isoform, or with tags, fused parts or gaps, stated change not applied): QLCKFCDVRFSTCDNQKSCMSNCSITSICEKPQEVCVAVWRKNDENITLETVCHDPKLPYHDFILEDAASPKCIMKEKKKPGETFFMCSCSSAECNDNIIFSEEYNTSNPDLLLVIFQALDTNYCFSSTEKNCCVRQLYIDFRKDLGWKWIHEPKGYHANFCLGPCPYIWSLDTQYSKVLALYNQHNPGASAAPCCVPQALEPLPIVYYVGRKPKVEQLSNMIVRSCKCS
row,Substance,Kd [µM]
1,"masked TGF-β1 construct, IL-2 - IgG scaffold - TβRII(Δ25, D118A) mask - TGF-β1 (from UniProt P01137 279-390) (Fc fusion)",1.51
2,"masked TGF-β1 construct, IL-2 - IgG scaffold - TβRII(Δ25, D118A, D32N) mask - TGF-β1 (from UniProt P01137 279-390) (Fc fusion)",5.9
3,"masked TGF-β1 construct, IL-2 - IgG scaffold - TβRII(Δ25, D118A, E55A) mask - TGF-β1 (from UniProt P01137 279-390) (Fc fusion)",2.99
4,"masked TGF-β1 construct, IL-2 - IgG scaffold - TβRII(Δ25, D118A, S52L) mask - TGF-β1 (from UniProt P01137 279-390) (Fc fusion)",154
